# Assay results from the nanobody polyreactivity screen of Harvey et al. (2022).
# Test: yeast display, Sf9 membrane polyspecificity reagent, FACS + sequencing; frameworks hold sequencing errors
# Procedure, shortened: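 A nanobody's polyreactivity label depends on the gate it was sorted from. Yeast display cells were stained with 10% biotinylated, detergent-solubilized Sf9 membrane reagent for 1 hour at 4 °C, enriched on streptavidin microbeads and sorted by FACS. The low and high (top ~1%) gates were set on anti-HA fluorescence for expression and streptavidin fluorescence for reagent binding.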
sequence,measurement,value
QVQLVESGVGLVQAGGSLRLSWTASGRIFSWYAMGWYRQAPGKERELVADISWGTGSTYYADTVKGRFTISRDNAKHTVDLQMNSLKPEDTAVYYCAADPGYYYEYRRFYYWGQGTQVTVSS,polyreactivity (PSR sort gate),high polyreactivity
QVQLVESGVGLVQAGGSLRLTCAASGRIFVTNAKGWYRQAPGKERELVAAITRGVNTNYADSVKGRFTISRDNAKNTVYLQMNSLKPEDTAVYYCAADSSYYYVYGYFPGYYYWGQGTQVTVSS,polyreactivity (PSR sort gate),low polyreactivity
QVQLVESGVGLVQAGGSLRVSCAASGRTFRYYAMGWYREAPGKERELVAAISSGTRTNYADSVTGRFTISRDNAKNTVYLQMNSLKPEDTAVYYCNAVTRRSAQGGHDYWGQGTQVTVSS,polyreactivity (PSR sort gate),high polyreactivity
QVQLVESGVGLVQAGGSLSLSCAASGRTFYVNAMGWYRQAPGKERELVARITSGGSTYYGDSVKGRFTISRDNAKNTVYLQMNSLKPEDTAVYYCAKKYIGYQEGIHSTRRYDYWGQGTQVTVSS,polyreactivity (PSR sort gate),low polyreactivity
QVQLVESGVGLVQAGGSLSLSCAASGSTFYKYTMGWYRQAPGKESELVAAISGSGTTTYYADSVKGRFTISRDYAKNTVFLQINSLKPEDTAVYYCAAETYSPDREYGYWGLGTQVTVSS,polyreactivity (PSR sort gate),high polyreactivity
QVQLVESGVGLVQAGGSLSLSSAASGSIFGYYAMGWYRQAPGKERELVAAITSDGDTYYADSVKGRFTISRDNAKNTVYLQINSLKPEDTAVYYCNATYGGPYYIQNDYWGQGTQVTVSS,polyreactivity (PSR sort gate),low polyreactivity
QVQLVESGVGLVQAVGSHRLSCAASGFTIINNDMGWYRQAPGKEREFVAAISDSDGTTYYADSVKGRFSISRDNAKNTVYLQMNSLKPEDTAVYYCAADVVPTWEDEYWGQGTQVTVSS,polyreactivity (PSR sort gate),low polyreactivity
QVQLVESGVGLVQAVGSLRISCAACGSIFGRYGMGWYRQAPGKERELVAAITSGTRTNYADSVKGRFTISRDNAKNTVYLQMNSLKPEDTAVYYCNALRLRGIYEYGYWGLGTQVTVSS,polyreactivity (PSR sort gate),low polyreactivity
QVQLVESGVGLVQAVGSLRLSCAASGIILHYYAMGWYRQAPGKERELVAAISARGGRTYYADSVKGRFTISRDNAKNTVYLQMNSLKPEDTAVYYCAKDTRRSGVSTYTGNMDYWGHGTQVTVSS,polyreactivity (PSR sort gate),high polyreactivity
QVQLVESGVGLVQAVGSLRLSCAASGSILITNAMGWYRQAPGKERELVAAISSGGSTYYADSVKGRFTISRDNAKNTVYLQMNSLKPEDTAVYYFAADQLKVGREYVEYDYWGQGTQVTVSS,polyreactivity (PSR sort gate),low polyreactivity
QVQLVESGVGSVQAGGSLRLSCAASGATFPGNAMGWYRQAPGKERELVAAIRDRGTSTYDADSVKGRFTISRDNAKNTVYLQMNSLKPEDTAVYYCAAASRVAKGRWRLYDYWGQGTQVTLSS,polyreactivity (PSR sort gate),high polyreactivity
QVQLVESGVRVVQAGGSLRLRCAASGFTFRDYTMGWYRQAPGKERELVAAISRSGGSTYYADSVKGRFTISRDNAKNTVDLQMNSLKPEDTAVYYCAALWHAVSYADYDYWGQGTQVTVSS,polyreactivity (PSR sort gate),high polyreactivity
QVQLVESRAGLVQAGGSLRLSCAASGRTSWVYAMGWYRHAPGKDRELVAAIRWRGSSTYYADSGKGRFTISRDNAKNTVYLQMNSLKPEVTAVYYCAAAFSFAQSFDSWGQGTQVTVSS,polyreactivity (PSR sort gate),high polyreactivity
QVQLVESRGGLLQAGGSLRLSCAASGIIFGHYDMGWYRQAPGKEWELVAAITFTGDSTYYADSVKGRFTISRDNAKHTVYLQMNSLKPEDTAVYYCAAETPVPWGSWGYDYWGQGTQVTVSS,polyreactivity (PSR sort gate),low polyreactivity
QVQLVESRGGLLQAGGTLRLSCAASGLTITTYTMGWSIQAPGTERELVASINYRGGRTYYADSVKGRFSISRDNAKNTVYLQMNSLKPEDTAVYYCAKSRYYRRRQYYHYDYCGQGTQVTVSS,polyreactivity (PSR sort gate),high polyreactivity
QVQLVESRGGLVQAGGSLGLSCAASGPTFFYNAMGWYRQAPGKERELVAAISSGGGSTYYADSVKGRFTISRDNAKNTVYLQMNSLKPEDTAVYYCAGASYRQPGYGYWGQGTLVTVSS,polyreactivity (PSR sort gate),high polyreactivity
QVQLVESRGGLVQAGGSLRISCAASGSTFVAYAMGWYRQAPAKERELVAAISYSGGSTYYADSVKGRFTISRDYAKNTVSLQMNCLKPEDTAVYYCAAEWSRHYYYGPRYDYWGQGTQVSVSS,polyreactivity (PSR sort gate),low polyreactivity
QVQLVESRGGLVQAGGSLRLSCAASGATFNHYAMGWYRQAPGKERELVAAITKSGGSTYADSVKGRFTISRDNAKKTVYLQMNSLKPEDTAVYYCAAGRRKYGTKGRGDYWGQGSQVTVSS,polyreactivity (PSR sort gate),low polyreactivity
QVQLVESRGGLVQAGGSLRLSCAASGFIFDKYAMGWYRQAPGKERELVATITSGGSTYYADSVKGRFTISRDNAKNTVYLQMNSLKPEDTAVYYCAALDYGYRWYRYYYWGQGTQVTVSS,polyreactivity (PSR sort gate),high polyreactivity
QVQLVESRGGLVQAGGSLRLSCAASGFIFSSYAMGWYRQAHGKERELVAAITSGGSTNYADSVKGRFTISRDNAKNTVYLQMNSLKPEDTAVYYCATVPGGSWFFHWWSTGGDDEYWGQGTQVTVSS,polyreactivity (PSR sort gate),low polyreactivity
QVQLVESRGGLVQAGGSLRLSCAASGFIFWYYAMGWYRQAPGKERALVAAINWSGTSTNYADSVKGRFTISRDNAKNTVYLQMNSLIPEDTAVYYCNTRIWSSSYDVTYDYWGQGTQVTVSS,polyreactivity (PSR sort gate),low polyreactivity
QVQLVESRGGLVQAGGSLRLSCAASGFTFYLNALGWYRPAPGKERELVAAISYSDGSTYYADSVKGRFTISRDNAKNTVYLQMNSLKPEDTAVYYCAADTTDPGGAYQLMDYCGQGTQVTVSS,polyreactivity (PSR sort gate),high polyreactivity
QVQLVESRGGLVQAGGSLRLSCAASGIIFDTNAMGWYRQAPGKERELVATITQRGGTTYYADSVKGRFTISRDNAKNTVYLQMNSLKPEDTAVYYCNAGPVRLPYDSWGQGTQVTVSS,polyreactivity (PSR sort gate),low polyreactivity
QVQLVESRGGLVQAGGSLRLSCAASGITLYGYAMGWYRQAPGKERELVAAISRSGSSTYYADSVKGRFTISRDNAKNTVYVQMNSLKPEDTAVYYCNSEKYYLAYLLPFNYWGQGTQVTVSS,polyreactivity (PSR sort gate),high polyreactivity
QVQLVESRGGLVQAGGSLRLSCAASGLTFRYYAMGWYRQAPGKERELVAAITASVGSTYYADSVKGRFTISRDNAKNTVYLQMNSLKPEDTAVYYCAADSEQDNLRYYRWVWYYYWGQGTQVTVSS,polyreactivity (PSR sort gate),low polyreactivity
QVQLVESRGGLVQAGGSLRLSCAASGMTFSDYPMGLYRQAPGKEREFVSAITSGGRTNYADSVKGRFTISRDNAKNTVYLQMNSLKPEDTAVYYCAAVYTYVYYYHYPYYYWGQGTQVTVSS,polyreactivity (PSR sort gate),low polyreactivity
QVQLVESRGGLVQAGGSLRLSCAASGRIFGSYAMGWYRQAPGKERVLVAAISYSGGSTYYADSVKGRFTISRDNAKNTVYLQMNSLKPEDTAVYYSNVDRYYGYFSVRGGYWGQGTQVTVSS,polyreactivity (PSR sort gate),low polyreactivity
QVQLVESRGGLVQAGGSLRLSCAASGRIFGYYAMGWYRQAPGKERELVATIRGGGSTNYADSVKGRFTISRDNAKNTVYLQMNSLKPEDTAVYYCAKPGAKWRGFDYWGQGTQVTVSS,polyreactivity (PSR sort gate),low polyreactivity
QVQLVESRGGLVQAGGSLRLSCAASGRIFSNNAMGCYRQAPGKERELVAAITASSGSTYYADSVKGRFTISRDNAKNTVYLQMNSLKPEDTAVYYCAATLRWGFRWYFGFDYWGQGTQLTVSS,polyreactivity (PSR sort gate),high polyreactivity
QVQLVESRGGLVQAGGSLRLSCAASGRILPYHVMGWYSQAPGKERELVAAISSGGTTDYADSVKGRFTISRDNANNTVYLQMNSLKPEDTAVYYCAATYDYWTWGYDYWGQGTQVTVSS,polyreactivity (PSR sort gate),low polyreactivity
QVQLVESRGGLVQAGGSLRLSCAASGRTFHRNAMGWYRQPPGKERELVAAITGDGRTNYADSVKGRFTISRDNAKNTVYLQMNSLKPVDTAVYYCAARFSYRSYDYWGQGTQVTVSS,polyreactivity (PSR sort gate),low polyreactivity
QVQLVESRGGLVQAGGSLRLSCAASGRTFSGNAMGWYRQAPGKERELVAAITSVGTTNYADSVKGRFTISRDNANNTVYLQMNSLKPEHTAVYYCAADPPSDYYKYDYWGHGTQVTVSS,polyreactivity (PSR sort gate),low polyreactivity
QVQLVESRGGLVQAGGSLRLSCAASGRTIYPYTMGCYRQAPGKERELVAAISSSGTRTYYADSVKGRFTISRDIAKNTVYLQMNSLKPEDTAVYDCATRRPGSFGYWGQGTQVTVSS,polyreactivity (PSR sort gate),high polyreactivity
QVQLVESRGGLVQAGGSLRLSCAASGSIFDGYAMGWYRQAPGKERELVAAITWSGGRTYYADSVKGRFTISRDNAKNTVYLQMNSLKPEDTAVYYCNAVTGSWRYDYWGQGTQVTVSS,polyreactivity (PSR sort gate),high polyreactivity
QVQLVESRGGLVQAGGSLRLSCAASGSIFLYAMGWYRQEPGKQRELVAAISGGGRTNYADSVKGRFTISRDNAKNTVYLQMNSMKPEDTAVYYCAADPVYWYSPMDYWGQGTQVTVSS,polyreactivity (PSR sort gate),low polyreactivity
QVQLVESRGGLVQAGGSLRLSCAASGSIFPYYAMGWYRQAPGKERELVAAISLSGVSTTYADSVKGRFTISRDNAKNTVYLQMNSLKPVDTAVYYCAAKSFWSRYVGGYYWGQGTQVTVSS,polyreactivity (PSR sort gate),high polyreactivity
QVQLVESRGGLVQAGGSLRLSCAASGSIFRSYAMGWYRQAPGKERELVAAIRGSDGNTYYADSVKGRFTISRDNPKNTVYLQMNSLKPEDTAVYYCAADGCLVDDSATRLYYWGQGTQVTVSS,polyreactivity (PSR sort gate),high polyreactivity
QVQLVESRGGLVQAGGSLRLSCAASGSIFSFYAMGWYRQAPGKERELVATITSGGSTYYADSVKGRFSISRDNAKNTVYLQMNSLKPEDTAVYYCAARGNFGANPGRKHGFDYWGQGTQVTVSS,polyreactivity (PSR sort gate),high polyreactivity
QVQLVESRGGLVQAGGSLRLSCAASGSIFYRYARGWYRQAPGKERELVAAITYSGGRTYYADSVKGRFTISRDNAKNTVYLQMNSLKPEDTAVYYCAAEKQSYGSPQGYDYWGQGTQVTVSS,polyreactivity (PSR sort gate),low polyreactivity
QVQLVESRGGLVQAGGSLRLSCAASGSTFFYNAMGWYRQAPGKEREFVAAITNGVITNYADSVKGRFTISRDNAKNTVYLQMNSLKPEDTAVYYCAALRWSPRSRYQYNYWGQGTQVTVSS,polyreactivity (PSR sort gate),high polyreactivity
QVQLVESRGGLVQAGGSLRLSCAASGSTFGPYTMGWYRQAPGKERELDAAISWNGGRTSYADSVKGRFTLSRDNAKNTVYLQKNSLKPEDTAGYYCAAGYFVGIYKRFYWGQGTQVTVSS,polyreactivity (PSR sort gate),high polyreactivity
QVQLVESRGGLVQAGGSLRLSCAASGSTFPGYAMGCYRQAPGKERELVAAISRSGGSTSYADSVKGRFTISRDKAQNTVYLQLHSLKPEDTEVYYCAAQVQGTSRAKQRGGIGELDYWGQGTQVTVSS,polyreactivity (PSR sort gate),low polyreactivity
QVQLVESRGGLVQAGGSLRLSCAASGSTFSPYVMGWYREAPGKERELFAAIRGRGGNTYYADSVKGRFTISRDNAKNTVYLQMNSLKPEDSAVYYCAAQSFAQYGWRYGDWGQVTQVTVSS,polyreactivity (PSR sort gate),high polyreactivity
